The record followed here is the RNAGym collection of RNA variant scans (doi:10.7554/elife.80360).

B1: Twister Ribozyme (parent)
chain: AACACUGCCAAUGCCGGUCCCAAGCCCGGAUAAAAGUGGAGGGGGCGG

The variants in this data set derive from B1. Description: self-cleavage, relative activity (ratio to wild type); higher = more cleavage; co-transcriptional.
As to AACACUGCCAAUGCCGGUCCCAAGCCCGGAUAAAAGUGGUGUGGGCGG, the self-cleavage was 0.15.
As to AACACUGCCAAUGCCGGUCCCAAGCCCGGAUAAAAGUGGGGGGCGCGG, the self-cleavage is 0.195.
Turning to AACACUGCCAAUGCCGGUCCCAAGCCCGGAUAAAAGUGGGGGGUGCGG, the self-cleavage was found to be 0.156.
Take AACACUGCCAAUGCCGGUCCCAAGCCCGGAUAAAAGUGGGGGGGGCGG: the self-cleavage stood at 0.153.
The same measure for AACACUGCCAAUGCCGGUCCCAAGCCCGGAUAAAAGUGGCGGGGGCGG: 0.262; for AACACUGCCAAUGCCGGUCCCAAGCCCGGAUAAAAGUGGUGGGGGCGG: 0.158.
The same measure for AACACUGCCAAUGCCGGUCCCAAGCCCGGAUAAAAGUGGCGGCGGCGG: 0.157; for AACACUGCCAAUGCCGGUCCCAAGCCCGGAUAAAAGUGCAGGGGCCGG: 0.105.
As to AACACUGCCAAUGCCGGUCCCAAGCCCGGAUAAAAGUGCAGGGGUCGG, the self-cleavage was determined as 0.158.
As for AACACUGCCAAUGCCGGUCCCAAGCCCGGAUAAAAGUGCAGGGGACGG, the self-cleavage was 0.12.
As to AACACUGCCAAUGCCGGUCCCAAGCCCGGAUAAAAGUGGUGGGGGAGG, the self-cleavage was 0.146.
As to AACACUGCCAAUGCCGGUCCCAAGCCCGGAUAAAAGUGGCUGGGGCGG, the self-cleavage was found to be 0.157.
The figure for AACACUGCCAAUGCCGGUCCCAAGCCCGGAUAAAAGUGGCAGGGGCGG is 0.115; for AACACUGCCAAUGCCGGUCCCAAGCCCGGAUAAAAGUGGAGCGGUCGG it is 0.164; for AACACUGCCAAUGCCGGUCCCAAGCCCGGAUAAAAGUGGCGGGUGCGG it is 0.296.
Take AACACUGCCAAUGCCGGUCCCAAGCCCGGAUAAAAGUGGCGGGAGCGG: the self-cleavage came out at 0.298.
As for AACACUGCCAAUGCCGGUCCCAAGCCCGGAUAAAAGUGUAAGGGGCGG, the self-cleavage came to 0.0926.
For the variant AACACUGCCAAUGCCGGUCCCAAGCCCGGAUAAAAGUGUACGGGGCGG, the self-cleavage is 0.121.
With AACACUGCCAAUGCCGGUCCCAAGCCCGGAUAAAAGUGUAUGGGGCGG, the self-cleavage is 0.149.
The figure for AACACUGCCAAUGCCGGUCCCAAGCCCGGAUAAAAGUGUAGGGGGCAG is 0.14.
Regarding AACACUGCCAAUGCCGGUCCCAAGCCCGGAUAAAAGUGUAGGGGGCCG, the self-cleavage came to 0.16.
With AACACUGCCAAUGCCGGUCCCAAGCCCGGAUAAAAGUGGGGGGGGCUG, the self-cleavage amounted to 0.143.
Consider AACACUGCCAAUGCCGGUCCCAAGCCCGGAUAAAAGUGGAUGCGGCGG, for which the self-cleavage came to 0.135.
As for AACACUGCCAAUGCCGGUCCCAAGCCCGGAUAAAAGUGGAUGAGGCGG, the self-cleavage came out at 0.163.
Take AACACUGCCAAUGCCGGUCCCAAGCCCGGAUAAAAGUGCAGGAGGCGG: the self-cleavage was 0.103.
AACACUGCCAAUGCCGGUCCCAAGCCCGGAUAAAAGUGGAGCGGGGGG: the self-cleavage is 0.465.
For AACACUGCCAAUGCCGGUCCCAAGCCCGGAUAAAAGUGGAGCGGGUGG, the self-cleavage worked out at 0.463.
As to AACACUGCCAAUGCCGGUCCCAAGCCCGGAUAAAAGUGCAGGGGGCGA, the self-cleavage is 0.138.
Consider AACACUGCCAAUGCCGGUCCCAAGCCCGGAUAAAAGUGUAGGGGGCGU, for which the self-cleavage worked out at 0.196.
As for AACACUGCCAAUGCCGGUCCCAAGCCCGGAUAAAAGUGGAGAUGGCGG, the self-cleavage was determined as 0.134.
The same measure for AACACUGCCAAUGCCGGUCCCAAGCCCGGAUAAAAGUGGAGAAGGCGG: 0.131; for AACACUGCCAAUGCCGGUCCCAAGCCCGGAUAAAAGUGGAAGGGGCGC: 0.535.
For the variant AACACUGCCAAUGCCGGUCCCAAGCCCGGAUAAAAGUGGAAGGGGCGA, the self-cleavage came out at 0.332.
With AACACUGCCAAUGCCGGUCCCAAGCCCGGAUAAAAGUGGCGGGGGCGC, the self-cleavage came to 0.343.
For AACACUGCCAAUGCCGGUCCCAAGCCCGGAUAAAAGUGGACGGGGCCG, the self-cleavage came to 0.162.
AACACUGCCAAUGCCGGUCCCAAGCCCGGAUAAAAGUGGACGGGGCAG: the self-cleavage turned out to be 0.235.
Consider AACACUGCCAAUGCCGGUCCCAAGCCCGGAUAAAAGUGGGGUGGGCGG, for which the self-cleavage was determined as 0.172.
For the variant AACACUGCCAAUGCCGGUCCCAAGCCCGGAUAAAAGUGCAGGGGGUGG, the self-cleavage worked out at 0.14.
Take AACACUGCCAAUGCCGGUCCCAAGCCCGGAUAAAAGUGGAUCGGGCGG: the self-cleavage was found to be 0.164.
AACACUGCCAAUGCCGGUCCCAAGCCCGGAUAAAAGUGGAUUGGGCGG: the self-cleavage is 0.125.
The figure for AACACUGCCAAUGCCGGUCCCAAGCCCGGAUAAAAGUGGAUGGGGAGG is 0.512.
The same measure for AACACUGCCAAUGCCGGUCCCAAGCCCGGAUAAAAGUGGUAGGGGCGG: 0.142; for AACACUGCCAAUGCCGGUCCCAAGCCCGGAUAAAAGUGGUGGGGGCUG: 0.12.
Consider AACACUGCCAAUGCCGGUCCCAAGCCCGGAUAAAAGUGGUGGGGGCCG, for which the self-cleavage worked out at 0.142.
The figure for AACACUGCCAAUGCCGGUCCCAAGCCCGGAUAAAAGUGGGGGGGGAGG is 0.164.
In the case of AACACUGCCAAUGCCGGUCCCAAGCCCGGAUAAAAGUGGGGGGGGUGG, the self-cleavage came to 0.155.
Turning to AACACUGCCAAUGCCGGUCCCAAGCCCGGAUAAAAGUGGAAGAGGCGG, the self-cleavage came to 0.171.
In the case of AACACUGCCAAUGCCGGUCCCAAGCCCGGAUAAAAGUGGAUGGAGCGG, the self-cleavage was determined as 0.403.
As for AACACUGCCAAUGCCGGUCCCAAGCCCGGAUAAAAGUGGAUGGUGCGG, the self-cleavage turned out to be 0.193.
Consider AACACUGCCAAUGCCGGUCCCAAGCCCGGAUAAAAGUGUAGAGGGCGG, for which the self-cleavage worked out at 0.104.
For the variant AACACUGCCAAUGCCGGUCCCAAGCCCGGAUAAAAGUGUAGUGGGCGG, the self-cleavage was 0.149.
In the case of AACACUGCCAAUGCCGGUCCCAAGCCCGGAUAAAAGUGGAAGGGACGG, the self-cleavage is 0.588.
In the case of AACACUGCCAAUGCCGGUCCCAAGCCCGGAUAAAAGUGGAAGGGUCGG, the self-cleavage worked out at 0.196.
With AACACUGCCAAUGCCGGUCCCAAGCCCGGAUAAAAGUGGAAGGGCCGG, the self-cleavage stood at 0.151.
